Assay results taken from paper PMC9352680, “A comprehensive thermodynamic model for RNA binding by the Saccharomyces cerevisiae Pumilio protein PUF4”.
Positions count from the first letter of the chain named. Names may count otherwise.

Target: T1, PUF4 RNA-binding domain (Saccharomyces cerevisiae, UniProt P25339 537-888)
T1 sequence: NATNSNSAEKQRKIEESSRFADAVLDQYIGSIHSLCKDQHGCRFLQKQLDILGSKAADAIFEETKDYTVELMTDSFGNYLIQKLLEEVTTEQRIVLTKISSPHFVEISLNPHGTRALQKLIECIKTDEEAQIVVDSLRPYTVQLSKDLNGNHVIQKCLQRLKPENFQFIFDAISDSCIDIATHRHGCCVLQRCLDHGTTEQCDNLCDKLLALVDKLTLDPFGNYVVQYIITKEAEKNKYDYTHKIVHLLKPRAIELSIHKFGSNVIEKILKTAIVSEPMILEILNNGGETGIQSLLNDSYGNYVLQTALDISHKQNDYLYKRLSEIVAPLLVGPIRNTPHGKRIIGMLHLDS
Assay: Mg; RNA-MaP; 20 mM Na-HEPES pH 7.4, 30 mM KOAc, 0.75 mM MgCl2, 0.1% Tween-20, 5% glycerol, 0.1 mg/mL BSA, 2 mM DTT; 25 C; 0.0125-409.6 nM protein
Conditions: tags: N-His6-TEV cleaved; C-SNAP kept, Cy3B-labelled; label: tethered on chip by stalled RNA polymerase

B1: Ia_S4_P4E.1_K4.1_C4.1_H4.1_A4.1_[T5C]_F4.1_T4.1 (ssRNA)
RNA: UUUGACAACUGAUCGUUCUUUCUUGUACAUUAUUCUUUCUCGAUCAGUUGUCUUU
Which Kd does the source give for B1 here?
Its Kd is 0.303 nM.

B2: Ia_S4_P4E.1_K4.1_C4.1_H4.1_A4.1_[A6C]_F4.1_T4.1 (ssRNA)
RNA: B1 RNA with C28U, A29C
How did the Kd turn out when B2 was run?
Its Kd is 2.17 nM.

B3: Ia_S4_P4E.1_K4.1_C4.1_H4.1_A4.1_[A6T]_F4.1_T4.1 (ssRNA)
RNA: B1 RNA with C28U, A29U
Which Kd does the source give for B3 here?
The Kd was 1.24 nM.

B4: Ic_S4_P4E.1_K4.1_C4.1_H4.1_A4.1_[T5A]_F4.1_T4.1 (ssRNA)
RNA: B1 RNA with C28A
B4 was tested. Which Kd did it give?
The Kd was 1.69 nM.

B5: Ib_S4_P5E.1_K5.1_C5.1_H5.1_A5.1_[A7T]_F5.1_[T8C]_T5.1 (ssRNA)
RNA: UUUGACAACUGAUCGUUCUUUCUUGUAUUUCUAUUCUUUCUCGAUCAGUUGUCUUU
B5 was tested. Which Kd did it give?
The Kd was 3.12 nM.

B6: Ib_S4_P5E.1_K5.1_C5.1_H5.1_[T1C]_A5.1_[A7T]_F5.1_T5.1 (ssRNA)
RNA: B5 RNA with U24C, C31U
Which Kd does the source give for B6 here?
Its Kd is 370 nM.

B7: Ib_S4_P5E.1_K5.1_C5.1_H5.1_[G2C]_[A4T]_A5.1_F5.1_T5.1 (ssRNA)
RNA: B5 RNA with G25C, A27U, U30A, C31U
With B7 as the binder, how does the Kd read?
The Kd was > 2300 nM.

B8: Ib_S4_P5E.1_K5.1_C5.1_H5.1_A5.1_[A7G]_F5.1_[T9C]_T5.1 (ssRNA)
RNA: B5 RNA with U30G, C31U, U32C
How did the Kd turn out when B8 was run?
Its Kd is 393 nM.

B9: Ib_S4_P5E.1_K5.1_C5.1_H5.1_A5.1_[T6C]_F5.1_[A10T]_T5.1 (ssRNA)
RNA: B5 RNA with U29C, U30A, C31U, A33U
With B9 as the binder, how does the Kd read?
The Kd was 7.7 nM.

B10: Ib_S4_P5E.1_K5.1_C5.1_H5.1_[G2A]_[T3A]_A5.1_F5.1_T5.1 (ssRNA)
RNA: B5 RNA with G25A, U26A, U30A, C31U
Which Kd does the source give for B10 here?
Its Kd is 2140 nM.

B11: Ib_S4_P5E.1_K5.1_C5.1_H5.1_[T1A]_[T3C]_A5.1_F5.1_T5.1 (ssRNA)
RNA: B5 RNA with U24A, U26C, U30A, C31U
B11 was tested. Which Kd did it give?
Its Kd is > 2300 nM.

B12: Ib_S4_P5E.1_K5.1_C5.1_H5.1_A5.1_[T5C]_F5.1_[A10T]_T5.1 (ssRNA)
RNA: B5 RNA with U28C, U30A, C31U, A33U
How did the Kd turn out when B12 was run?
Its Kd is 4.98 nM.

B13: Ib_S4_P5E.1_K5.1_C5.1_H5.1_[T1C]_[A4T]_A5.1_F5.1_T5.1 (ssRNA)
RNA: B5 RNA with U24C, A27U, U30A, C31U
With B13 as the binder, how does the Kd read?
The Kd was 1050 nM.

B14: Ib_S4_P5E.1_K5.1_C5.1_H5.1_A5.1_[A7G]_F5.1_[A10G]_T5.1 (ssRNA)
RNA: B5 RNA with U30G, C31U, A33G
With B14 as the binder, how does the Kd read?
Its Kd is 52.3 nM.

B15: Ib_S4_P5E.1_K5.1_C5.1_H5.1_A5.1_[T5G]_F5.1_[A10G]_T5.1 (ssRNA)
RNA: B5 RNA with U28G, U30A, C31U, A33G
B15 was tested. Which Kd did it give?
The Kd was 109 nM.

B16: Ib_S4_P5E.1_K5.1_C5.1_H5.1_[G2T]_A5.1_[T5C]_F5.1_T5.1 (ssRNA)
RNA: B5 RNA with G25U, U28C, U30A, C31U
B16 was tested. Which Kd did it give?
The Kd was > 2300 nM.

B17: Ib_S4_P5E.1_K5.1_C5.1_H5.1_[T1A]_A5.1_[T6C]_F5.1_T5.1 (ssRNA)
RNA: B5 RNA with U24A, U29C, U30A, C31U
For B17, which Kd is on record?
Its Kd is > 2300 nM.

B18: Ib_S4_P5E.1_K5.1_C5.1_H5.1_[T3G]_[A4C]_A5.1_F5.1_T5.1 (ssRNA)
RNA: B5 RNA with U26G, A27C, U30A, C31U
With B18 as the binder, how does the Kd read?
Its Kd is 1880 nM.

B19: Ib_S4_P5E.1_K5.1_C5.1_H5.1_[G2C]_A5.1_[T5A]_F5.1_T5.1 (ssRNA)
RNA: B5 RNA with G25C, U28A, U30A, C31U
For B19, which Kd is on record?
The Kd was > 2300 nM.

B20: Ib_S4_P5E.1_K5.1_C5.1_H5.1_[G2T]_[A4G]_A5.1_F5.1_T5.1 (ssRNA)
RNA: B5 RNA with G25U, A27G, U30A, C31U
With B20 as the binder, how does the Kd read?
The Kd was 492 nM.

B21: Ib_S4_P5E.1_K5.1_C5.1_H5.1_[T1A]_[A4G]_A5.1_F5.1_T5.1 (ssRNA)
RNA: B5 RNA with U24A, A27G, U30A, C31U
How did the Kd turn out when B21 was run?
The Kd was 1260 nM.

B22: Ib_S4_P5E.1_K5.1_C5.1_H5.1_A5.1_[A7T]_F5.1_[A10T]_T5.1 (ssRNA)
RNA: B5 RNA with C31U, A33U
For B22, which Kd is on record?
The Kd was 10.7 nM.

B23: Ib_S4_P5E.1_K5.1_C5.1_H5.1_[T1C]_[G2A]_A5.1_F5.1_T5.1 (ssRNA)
RNA: B5 RNA with U24C, G25A, U30A, C31U
With B23 as the binder, how does the Kd read?
The Kd was 1660 nM.

B24: Ib_S4_P5E.1_K5.1_C5.1_H5.1_[T1C]_A5.1_[T6A]_F5.1_T5.1 (ssRNA)
RNA: B5 RNA with U24C, U29A, U30A, C31U
With B24 as the binder, how does the Kd read?
The Kd was 1040 nM.

B25: Ib_S4_P5E.1_K5.1_C5.1_H5.1_[T3G]_[A4T]_A5.1_F5.1_T5.1 (ssRNA)
RNA: B5 RNA with U26G, A27U, U30A, C31U
B25 was tested. Which Kd did it give?
The Kd was 745 nM.

B26: Ic_S4_P5E.1_K5.1_C5.1_H5.1_A5.1_[T6C]_F5.1_[T9A]_T5.1 (ssRNA)
RNA: B5 RNA with U29C, U30A, C31U, U32A
B26 was tested. Which Kd did it give?
Its Kd is 1.47 nM.

B27: Ib_S4_P5E.1_K5.1_C5.1_H5.1_[T3C]_[A4T]_A5.1_F5.1_T5.1 (ssRNA)
RNA: B5 RNA with U26C, A27U, U30A, C31U
How did the Kd turn out when B27 was run?
The Kd was 453 nM.

B28: Ib_S4_P5E.1_K5.1_C5.1_H5.1_[T1C]_A5.1_[T6C]_F5.1_T5.1 (ssRNA)
RNA: B5 RNA with U24C, U29C, U30A, C31U
B28 was tested. Which Kd did it give?
The Kd was 637 nM.

B29: Ib_S4_P5E.1_K5.1_C5.1_H5.1_A5.1_[T5C]_F5.1_[T9C]_T5.1 (ssRNA)
RNA: B5 RNA with U28C, U30A, C31U, U32C
How did the Kd turn out when B29 was run?
The Kd was 27.6 nM.

B30: Ic_S4_P5E.1_K5.1_C5.1_H5.1_A5.1_[A7C]_F5.1_[A10T]_T5.1 (ssRNA)
RNA: B5 RNA with U30C, C31U, A33U
B30 was tested. Which Kd did it give?
Its Kd is 13.8 nM.

B31: Ib_S4_P5E.1_K5.1_C5.1_H5.1_[T1G]_[A4C]_A5.1_F5.1_T5.1 (ssRNA)
RNA: B5 RNA with U24G, A27C, U30A, C31U
With B31 as the binder, how does the Kd read?
The Kd was > 2300 nM.

B32: Ib_S4_P5E.1_K5.1_C5.1_H5.1_[T3C]_[A4C]_A5.1_F5.1_T5.1 (ssRNA)
RNA: B5 RNA with U26C, A27C, U30A, C31U
Which Kd does the source give for B32 here?
The Kd was 862 nM.

B33: Ib_S4_P5E.1_K5.1_C5.1_H5.1_A5.1_[A7C]_F5.1_[T9C]_T5.1 (ssRNA)
RNA: B5 RNA with U30C, C31U, U32C
Which Kd does the source give for B33 here?
Its Kd is 56 nM.

B34: Ib_S4_P5E.1_K5.1_C5.1_H5.1_A5.1_[A7T]_F5.1_[A10G]_T5.1 (ssRNA)
RNA: B5 RNA with C31U, A33G
How did the Kd turn out when B34 was run?
The Kd was 9.13 nM.

B35: Ib_S4_P5E.1_K5.1_C5.1_H5.1_[G2T]_A5.1_[T5A]_F5.1_T5.1 (ssRNA)
RNA: B5 RNA with G25U, U28A, U30A, C31U
Which Kd does the source give for B35 here?
Its Kd is > 2300 nM.

B36: Ib_S4_P5E.1_K5.1_C5.1_H5.1_[T1C]_A5.1_[T5G]_F5.1_T5.1 (ssRNA)
RNA: B5 RNA with U24C, U28G, U30A, C31U
B36 was tested. Which Kd did it give?
The Kd was > 2300 nM.

B37: Ib_S4_P5E.1_K5.1_C5.1_H5.1_[T1C]_A5.1_[A7G]_F5.1_T5.1 (ssRNA)
RNA: B5 RNA with U24C, U30G, C31U
Which Kd does the source give for B37 here?
Its Kd is 2200 nM.

B38: Ib_S4_P5E.1_K5.1_C5.1_H5.1_A5.1_[T5G]_F5.1_[T9A]_T5.1 (ssRNA)
RNA: B5 RNA with U28G, U30A, C31U, U32A
For B38, which Kd is on record?
The Kd was 7.64 nM.

B39: Ib_S4_P5E.1_K5.1_C5.1_H5.1_A5.1_[A7T]_F5.1_[T9C]_T5.1 (ssRNA)
RNA: B5 RNA with C31U, U32C
B39 was tested. Which Kd did it give?
The Kd was 69.4 nM.

B40: Ib_S4_P5E.1_K5.1_C5.1_H5.1_[T1C]_[G2T]_A5.1_F5.1_T5.1 (ssRNA)
RNA: B5 RNA with U24C, G25U, U30A, C31U
How did the Kd turn out when B40 was run?
Its Kd is > 2300 nM.

B41: Ib_S4_P5E.1_K5.1_C5.1_H5.1_A5.1_[T5A]_F5.1_[A10C]_T5.1 (ssRNA)
RNA: B5 RNA with U28A, U30A, C31U, A33C
With B41 as the binder, how does the Kd read?
Its Kd is 29.4 nM.

B42: Ib_S4_P5E.1_K5.1_C5.1_H5.1_[T1C]_[T3C]_A5.1_F5.1_T5.1 (ssRNA)
RNA: B5 RNA with U24C, U26C, U30A, C31U
Which Kd does the source give for B42 here?
Its Kd is > 2300 nM.

B43: Ib_S4_P5E.1_K5.1_C5.1_H5.1_[G2A]_[A4T]_A5.1_F5.1_T5.1 (ssRNA)
RNA: B5 RNA with G25A, A27U, U30A, C31U
B43 was tested. Which Kd did it give?
Its Kd is 1440 nM.

B44: Ib_S4_P5E.1_K5.1_C5.1_H5.1_[G2C]_[A4G]_A5.1_F5.1_T5.1 (ssRNA)
RNA: B5 RNA with G25C, A27G, U30A, C31U
With B44 as the binder, how does the Kd read?
The Kd was 455 nM.
